From paper PMC11406985

Target: medusavirus major capsid protein (medusavirus)
Experiment: cryo-EM structure; purified medusavirus particles (DNA-empty and DNA-full) assembled in infected amoebae, in PBS; single particle analysis with block-based reconstruction of fivefold, threefold and twofold blocks, 7.3-9.9 Å; AlphaFold2 model of the MCP fitted into the map

**Q.** For “medusavirus major capsid protein (natural protein)”, which stoichiometry N is on record?
**A.** The stoichiometry N was 3.
